{"source": "paper PMC10193809", "about": "“A small protein coded within the mitochondrial canonical gene nd4 regulates mitochondrial bioenergetics” (BMC Biology, 2023)", "proteins": {"B1": {"name": "MTALTND4 (mitochondrial alternative ND4 protein), complete synthetic peptide (peptide)", "chain": "MRHNYNKLHLPTTNRPKIAHCMLFNQPHSPRSNSHSHPNPLKLHRRSHSHNRPRAYILITILPSKLKLRTHSQSHHNPLSRTSNSTPTNSFLMTSSKPR", "notes": "M.W. 11,532.06 g/mol as printed in the methods; also called MTALND4; synthetic MTALTND4; source: synthetic peptide (LifeTein; purity verified by HPLC by the supplier)"}}, "biological_target": "the molecule itself", "assay": "cross-linking; 3 µg synthetic MTALTND4 in 20 µl PBS 1x with 0%, 0.5% or 1% paraformaldehyde, 30 °C, 10 min; tricine-SDS-PAGE, Coomassie stain", "data": [{"protein": "B1", "values": [{"measurement": "stoichiometry N", "result": 2}]}]}
